In paper PMC6803640, “Oligomeric state, hydrodynamic properties and target recognition of human Calcium and Integrin Binding protein 2 (CIB2)” (Scientific Reports, 2019):
“And” between values parts separate entries of the source, which are not always exact repeats. Identical values can stand only once. Where a SMILES comes first, the peptide text is derived from it.

B1: CIB2: Recombinant human CIB2, Ca^2+ and Mg^2+-binding protein (protein)
chain: MGNKQTIFTEEQLDNYQDCTFFNKKDILKLHSRFYELAPNLVPMDYRKSPIVHVPMSLIIQMPELRENPFKERIVAAFSEDGEGNLTFNDFVDMFSVLCESAPRELKANYAFKIYDFNTDNFICKEDLELTLARLTKSELDEEEVVLVCDKVIEEADLDGDGKLGFADFEDMIAKAPDFLSTFHIRI
modifications: left off: His tag, end not stated, cleaved

Key:
CIB2 [1] = test: Near-UV circular dichroism; format: physicochemical, human; conditions: 37 °C
Procedure: CIB2 tertiary structure was investigated by using a Jasco J-710 spectropolarimeter equipped with a Peltier type cell holder as previously described. Briefly: near-UV (250–320 nm) CD spectra of 20 μM of sole CIB2 or CIB2/α7B_M complexes (1:1 and 1:2 ratios) were collected in the presence of 500 μM EGTA and after sequential additions of 1 mM Mg^2+ and 2 mM free Ca^2+. A 1 cm quartz cuvette was used, temperature was set at 37 °C, integration time and data pitch were set to 4 s and 1 nm, respectively. Each spectrum represents the average of 5 accumulations. […]
Figure S4: Structural comparison of His-CIB2 (A) and CIB2 (B). Near-UV CD spectra (250-320 nm) of 20-30 µM CIB2 were collected at 37°C in a quartz cuvette with 1 cm length path. Sequential additions of 500 µM EGTA (black), 1 mM Mg2+ (blue) and 2 mM Ca2+ (red) were performed. Near-UV CD spectra of the buffer (20 mM HEPES pH 7.5, 150 mM KCl, 1 mM DTT) was considered as blank and subtracted. Each spectrum represents the mean of 5 accumulations. Data were normalized according to the protein concentration and the number of residues (Molar Residue Ellipticity, MRE).
Figure S5: Near-UV CD spectra of CIB2 in the presence of different stoichiometric ratios of alpha7B_M peptide. Near-UV CD spectra (250-320nm) of 20 μM CIB2 in the absence of peptide (black lines) and in the presence of two different protein/peptide ratios (1:1 blue lines; 1:2 red lines) collected at 37°C in the presence of 500 μM EGTA (A) and after sequential additions of 1 mM Mg2+ (B) and 2 mM free Ca2+ (C). The spectrum of alpha7B_M peptide in the absence of CIB2 is shown in dashed grey lines. […]

Dynamic light scattering = format: physicochemical; conditions: 37 °C, fractions eluted from SEC (CIB2 A2 band), mean ± SEM; n = 15 (CIB2), 18 (Rec), 30 (CaM); 1.8 µM CIB2, 11 µM Rec, 7.4 µM CaM
Procedure: DLS measurements were performed using Zetasizer Nano-S (Malvern Instruments) at 37 °C by setting the same parameters for hydrodynamic diameter estimation as in ref.[26]. The estimation was based on 15–30 measurements, each consisting of at least 13 repetitions; data in Table 1 are reported as mean ± standard error of mean (SEM). DLS samples for each protein are the same collected in the Analytical Size Exclusion Chromatography.
(§1) His-tagged proteins, and then blocked via amine coupling as explained above. Preparation of the […]
approximately 2250 RU of CIB2 immobilized. In binding experiments, peptide concentration was varied in the 230 nM- 30 μM range for both α7B_M, and α7B_C, and experiments were repeated 4 times, both with the HBS buffer described above (containing 1 mM MgCl2) and with further addition of 2 mM CaCl2. Flow rate was set to 20 μl min−1 in all binding experiments, and the dissociation […]
Figure S1: DLS measurements of the SEC collected peaks. CIB2 band A2 (A), Rec (B) and CaM (C). Each data set consisted of 15-30 measurements (grey lines), with 13-15 repetitions each. Colored lines are referred to the average distribution. Temperature was set to 37°C and samples were equilibrated for 2 min before measurements.
Figure S2: Time-resolved proteolysis experiments. […]

Trypsin = test: Limited proteolysis of CIB2 with trypsin; conditions: 30 min, 25 °C, 25 µM CIB2, trypsin 1:100, SDS-PAGE
Procedure: Figure 5 CIB2 limited proteolysis. (A) 10 µM CIB2 was incubated at 25 °C in the presence of 1 mM EDTA (Apo), 500 µM EGTA + 1 mM Mg^2+ (Mg^2+) and 1 mM Mg^2+ + 2 mM Ca^2+ for 10 minutes at 25 °C. Samples were boiled and loaded in a 18% SDS polyacrylamide gel. (B) Limited proteolysis was performed incubating trypsin with 25 µM CIB2 in the same concentrations of ions used for (A) (protein:enzyme ratio was 100:1). Samples were collected at different times, boiled and loaded on a 18% SDS-PAGE. Both gels run for 45–50 min, then they were Coomassie Blue-stained. The figure results from two separate gels, which have been reported in full length in Fig. S6.
Limited proteolysis experiments were performed incubating 25 µM CIB2 in the presence of Trypsin (Sigma) in a ratio 1:100 enzyme:CIB2 at 25 °C. Three conditions were tested: 1 mM EDTA, 500 µM EGTA + 1 mM Mg^2+ and 1 mM Mg^2+ + 2 mM Ca^2+. Time-resolved proteolysis patterns are reported in Supplementary Materials (Fig. S2), results shown in Fig. 5 refer to reactions stopped after 5 min and 30 min. Proteolysis products were loaded on a 15% or 18% SDS gel, as indicated.
as §1
approximately 2250 RU of CIB2 immobilized. […]

CIB2 [2] = conditions: fused with GFP and tdTomato; cited from earlier work
Excerpt: Our previous work with untagged purified CIB2 also concluded that CIB2 is dimeric. We now provide new lines of evidence that allow us to reconsider some of the previous findings in the light of MS ...

[3] = Analytical size exclusion chromatography; format: physicochemical
Procedure: The molecular weight (MW) of the proteins was determined before and after DSBU-modification as previously described[7] in the same buffer (20 mM HEPES, pH 7.5, 1 mM DTT, 1 mM Mg^2+ and 2 mM Ca^2+). […] Standard calibration curve for MW estimation was the same used in our previous study.

[4] = reducing conditions, different cation-bound states; cited from earlier work
Excerpt: Moreover, DLS experiments performed with the samples collected immediately after elution from the SEC column measured a relatively high hydrodynamic diameter (d^Mg = 8.43 nm and d^Ca = 8.18 nm), which was also interpreted as an evidence of a dimeric protein[8]. […] According to a calibration curve obtained with globular proteins of known MW, these bands would correspond to an apparent MW (MW^SEC) of 35.9 kDa in the absence and of 36.7 kDa in the presence of the cross-linker, thus very similar to those obtained in our previo ...

Molecule	near-UV CD, effect of peptide on apo-CIB2 (CIB2 [1]; 20 μM CIB2, 500 μM EGTA, 1:1 and 2:1 peptide:protein)	near-UV CD, effect of peptide on cation-bound CIB2 (CIB2 [1]; 20 μM CIB2, 1 mM Mg^2+ and co-presence of 2 mM Ca^2+, 1:1 and 2:1 peptide:protein)	near-UV CD, structure of isolated peptide (CIB2 [1]; 500 μM EGTA, 1 mM Mg^2+, 2 mM Ca^2+)	near-UV CD, tryptophan region (CIB2 [1]; incubation of CIB2 with peptide)	DLS Ø hydrodynamic diameter (Dynamic light scattering)	native band after trypsin (Trypsin; 1 mM EDTA (apo))	native band after trypsin (Trypsin; 1 mM Mg^2+ or 1 mM Mg^2+ + 2 mM Ca^2+)	dimer formation (CIB2 [2])	apparent MW (MW^SEC) ([3]; absence of cross-linker, 1 mM Mg^2+, 2 mM Ca^2+) [kDa]	MW^SEC ([3]; analytical SEC, 20 mM HEPES pH 7.4, 150 mM KCl, 1 mM DTT, 1 mM Mg^2+, 2 mM Ca^2+, CIB2 ∼70 µM (A2 band), Rec ∼80 µM, CaM ∼110 µM) [kDa]	MW^SEC, A1 shoulder ([3]; lower intensity shoulder A1 at lower elution time, predicted) [kDa]	apparent MW (MW^SEC) ([3]; presence of DSBU cross-linker, 1 mM Mg^2+, 2 mM Ca^2+) [kDa]	apparent MW (MW^SEC), previous work [4]
CSCC[C@H](NC(=O)[C@H](CCCCN)NC(=O)[C@H](Cc1c[nH]c2ccccc12)NC(=O)[C@H](CC(C)C)NC(=O)[C@H](CC(C)C)NC(=O)[C@H](CC(C)C)NC(C)=O)C(=O)NCC(=O)N[C@@H](Cc1ccccc1)C(=O)N[C@@H](Cc1ccccc1)C(=O)N[C@@H](CCCCN)C(=O)N[C@@H](CCCNC(=N)N)C(=O)N[C@@H](C)C(=O)N[C@@H](CCCCN)C(=O)N[C@@H](Cc1c[nH]cn1)C(=O)N1CCC[C@H]1C(=O)N[C@@H](CCC(=O)O)C(N)=O [α7B_M] (Ac-LLLWKMGFFKRAKHPE-NH2)	finer spectrum in the phenylalanine and tyrosine bands	the intensity of the resulting spectrum was lower compared to that of CIB2 without the peptide	unfolded in all the tested cases	no clear signal was visible									
B1					5.4 ± 0.2 nm and 5.4 ± 0.2 [15] nm	completely lost	permitted the detection of the native CIB2 band even after 30 min	found to form dimers	35.9	37.8	81.3	36.7	37–39 kDa
